# Experimental data as given in paper doi:10.1101/2022.02.14.480394 (bioRxiv, 2022).
# Biological target: Receptor Binding-Domain (RBD) of SARS-CoV-2 Spike (S) protein, Wuhan-Hu-1 (SARS-CoV-2, UniProt P0DTC2)
# Experiment: BLI
row,Binder,binding result
1,"C105 (antibody, V domains shown) VH: QVQLVESGGGLIQPGGSLRLSCAASGFTVSSNYMSWVRQAPGKGLEWVSVIYSGGSTYYADSVKGRFTISRDNSKNTLYLQMNSLRAEDTAVYYCARGEGWELPYDYWGQGTLVTVSS VL: QSALTQPPSASGSPGQSVTISCTGTSSDVGGYKYVSWYQQHPGKAPKLMIYEVSKRPSGVPDRFSGSKSGNTASLTVSGLQAEDEADYYCSSYEGSNNFVVFGGGTKLTVL",binds
2,"C118 (antibody, V domains shown) VH: QVQLVESGGGVVQPGRSLRLSCAASGFTFSNYAMHWVRQAPGKGLEWVAVISYDGSNKYYADSVKGRFTISRDNSKNTLYLQMNSLRAEDTAIYYCASGYTGYDYFVRGDYYGLDVWGQGTTVTVSS VL: QPVLTQSPSASASLGASVKLTCTLSSGHSSYAIAWHQQQPEKGPRYLMKLNTDGSHSKGDGIPDRFSGSSSGAERYLTISSLQSEDEADYYCQTWGTGILVFGGGTKLTVL",binds
